Columns and labels:
[1] = target: T1, PIN574 fully human Id protein (HV4-39 / LV1-40) (human); test: SPR (BIACORE 2000), mAb captured on anti-mouse surface, fully human Id protein as analyte, 25 C, single site model
T1 construct: patient tumour-derived idiotype immunoglobulin used as antigen; fully human form; also called Immunogen (for 20H5); not shown: human immunoglobulin heavy chain constant region, isotype G3 (HCG3); human lambda light chain constant region (LC)
Protocol: (§1) Binding constants were also determined for three of the sequenced clones (3C9, 10H7, and 20H5), as well as for two additional clones (6C9 and 15E1). The association and disassociation rates were measured by surface plasmon resonance using a BIACORE 2000 machine.
(§2) In addition, based on ELISA results, PIN185 was used as a positive control Id protein for 10H7 and 15E1 and a negative control Id protein for 3C9 and 6C9 and PIN149 was used as a non-binding Id protein for 20H5. Each mAb was captured onto an anti-mouse surface and tested for binding to the fully human Id protein. Following the mAb capture phase of the assay for the (@2 ug/ml), the fully human Id proteins were all diluted to a starting concentration of 250 nM and tested in a three fold dilution series. Each concentration was tested in duplicate. The running buffer contained PBS plus 0.005% tween-20 and 0.1 mg/ml BSA as a carrier. Binding data were collected at 25° C. […] The other data sets all fit well to a single site interaction model.

[2] = target: T2, PIN149 fully human Id protein (HV3-23 / KV4-1) (human); test: SPR (BIACORE 2000), mAb captured on anti-mouse surface, fully human Id protein as analyte
T2 construct: patient tumour-derived idiotype immunoglobulin used as antigen; recombinant, two identical heavy and two identical light chains; also called Immunogen (for 3C9, 6C9, 10H7, 15E1); not shown: human immunoglobulin heavy chain constant region, isotype G3 (HCG3); human kappa light chain constant region (KC)
T2 sequence (VH, as listed by the source, chain 1 of 2): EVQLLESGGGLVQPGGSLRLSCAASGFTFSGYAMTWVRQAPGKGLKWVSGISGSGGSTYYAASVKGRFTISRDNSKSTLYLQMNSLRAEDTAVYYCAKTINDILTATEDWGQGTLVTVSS
T2 sequence (VL, as listed by the source, chain 2 of 2): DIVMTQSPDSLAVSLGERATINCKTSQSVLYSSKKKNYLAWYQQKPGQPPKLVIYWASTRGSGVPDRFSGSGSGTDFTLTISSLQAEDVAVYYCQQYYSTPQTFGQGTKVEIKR
Protocol: as §1, §2

[3] = target: T1, PIN574 fully human Id protein (HV4-39 / …); test: ELISA
From the text: (§3) Before specificity screening, all of the clonal immunogen-positive hybridoma supernatants were re-screened on the immunogen, a non-family member Id protein, and KLH, if animals were immunized with Id protein that has been conjugated KLH. As described above, this screen identifies HC-specific clones but not mAbs against the light chain constant region. Clones identified positive to the immunogen and KLH were […]. Those found positive to the immunogen but not to the non-family member Id protein or KLH were tittered on the immunogen. In addition to normalizing for different binding affinities and concentrations, each hybridoma supernatant was titered on the fully human form of the Id protein used as the immunogen(s) for the V regions. The titer or dilution resulting in an ELISA absorbance of 2.5 to 3 OD after 30 min. incubation time was then used. Hybridoma specificity was determined by screening against available Id proteins expressing the same HV and KV or LV as well as different HV, KV and LV. The final ELISA results are expressed as follows: 0 (<0.5 OD),1 (0.5-1.0 OD), or 4 (1-4 OD). Positive hybridoma supernatants are categorized according to specificity: anti-Id, anti-constant region (HC, KC or LC), or V region (HV, KV, LV family or family member).
(§4) In general, the fully human Id protein or proteins containing the immunogen V regions were coated onto 96-well ELISA plates at 2.5-5 ug/mL in carbonate buffer pH 9.6 and incubated at 4° C. for up to 14 days. On the day of the ELISA, plates were brought to RT and blocked with Tris-Tween-20, pH 7.6 for 15-60 min. at RT. Following a NaCl and Triton X-100 wash, diluted hybridoma cell culture supernatants were incubated overnight at 4° C. Hybridoma supernatant dilutions ranged from 1:2 to 1:25 and were prepared in PBS with 5% BSA. Plates were washed and incubated with HRP-conjugated goat anti-mouse IgG-specific detecting antibody. A chromogenic substrate (TMB) was used to measure the amount of mouse antibody bound to each well. The reaction was stopped at or before 30 minutes with IN H2SO4 and plates were read immediately. Absorbency readings at 450 nm ranging between 0-4 OD and using Molecular Devices plate reader and SOFTMAX PRO software.

662 = target: T3, 662; test: ELISA
T3 construct: also called PIN662; PIN662 fully human Id protein (HV3-48 / LV2-8)
T3 sequence (heavy, as listed by the source): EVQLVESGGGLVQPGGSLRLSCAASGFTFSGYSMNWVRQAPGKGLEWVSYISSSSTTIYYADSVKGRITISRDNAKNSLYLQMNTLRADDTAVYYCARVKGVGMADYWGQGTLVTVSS
From the text: as §3, §4

116 = target: T4, 116; test: ELISA
T4 construct: immunogen of fusions 15, 16 and 18; coated in its fully human form; also called PIN116; PIN116 fully human Id protein (HV1-46 / LV2-8)
T4 sequence (VH, as listed by the source, chain 1 of 2): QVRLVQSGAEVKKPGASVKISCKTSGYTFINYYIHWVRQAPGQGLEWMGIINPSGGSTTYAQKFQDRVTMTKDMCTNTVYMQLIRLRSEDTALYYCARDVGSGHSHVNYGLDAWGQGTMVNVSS
T4 sequence (V domain, as listed by the source, chain 2 of 2): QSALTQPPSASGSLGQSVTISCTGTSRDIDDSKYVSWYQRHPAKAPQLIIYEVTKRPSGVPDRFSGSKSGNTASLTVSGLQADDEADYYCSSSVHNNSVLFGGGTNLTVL
From the text: as §3, §4

647 = target: T5, 647; test: ELISA
T5 construct: immunogen of fusion 17; also called PIN647; PIN647 fully human Id protein (HV3-48 / LV2-14)
T5 sequence (VH, as listed by the source, chain 1 of 2): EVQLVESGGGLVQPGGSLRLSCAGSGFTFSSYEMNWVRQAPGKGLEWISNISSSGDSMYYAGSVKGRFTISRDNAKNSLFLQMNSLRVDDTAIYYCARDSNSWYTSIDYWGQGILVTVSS
T5 sequence (VL, as listed by the source, chain 2 of 2): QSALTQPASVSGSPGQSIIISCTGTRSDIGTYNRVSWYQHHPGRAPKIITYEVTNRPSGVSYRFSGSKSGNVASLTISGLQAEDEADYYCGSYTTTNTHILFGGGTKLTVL
From the text: as §3, §4

[4] = target: T6, PIN185 fully human Id protein (human); test: ELISA
T6 construct: patient idiotype immunoglobulin used as control antigen
From the text: as §3, §4

628 = target: T7, 628; test: ELISA
T7 construct: immunogen of fusions 20 and 21; also called PIN628; PIN628 fully human Id protein (HV3-7 / KV4-1)
T7 sequence (VH, as listed by the source, chain 1 of 2): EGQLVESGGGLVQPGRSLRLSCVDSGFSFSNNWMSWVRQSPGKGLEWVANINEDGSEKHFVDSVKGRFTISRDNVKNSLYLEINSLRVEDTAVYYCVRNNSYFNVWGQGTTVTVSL
T7 sequence (VL, as listed by the source, chain 2 of 2): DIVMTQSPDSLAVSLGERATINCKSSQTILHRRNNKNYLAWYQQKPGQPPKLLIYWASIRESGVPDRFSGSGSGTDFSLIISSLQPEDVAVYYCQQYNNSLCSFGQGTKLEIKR
From the text: as §3, §4

913 = target: T8, 913; test: ELISA
T8 construct: also called PIN913; PIN913 fully human Id protein (HV4-59 / KV4-1)
T8 sequence (heavy, as listed by the source): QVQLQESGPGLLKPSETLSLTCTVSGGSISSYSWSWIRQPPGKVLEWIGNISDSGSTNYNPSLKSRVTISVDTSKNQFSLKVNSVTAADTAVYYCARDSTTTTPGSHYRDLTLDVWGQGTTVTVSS
From the text: as §3, §4

[5] = target: T2, PIN149 fully human Id protein (HV3-23 / …); test: SPR (BIACORE 2000), mAb captured on anti-mouse surface, fully human Id protein as analyte, 25 C, single site model
Protocol: as §1, §2

[6] = target: T6, PIN185 fully human Id protein; test: as above
Protocol: as §1, §2

[7] = target: T2, PIN149 fully human Id protein (HV3-23 / …); test: ELISA
From the text: as §3, §4

T1 sequence (VH, as listed by the source, chain 1 of 2): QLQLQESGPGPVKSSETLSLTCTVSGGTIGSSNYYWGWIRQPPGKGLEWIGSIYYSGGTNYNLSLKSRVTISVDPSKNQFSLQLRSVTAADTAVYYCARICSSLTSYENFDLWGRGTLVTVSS
T1 sequence (VL, as listed by the source, chain 2 of 2): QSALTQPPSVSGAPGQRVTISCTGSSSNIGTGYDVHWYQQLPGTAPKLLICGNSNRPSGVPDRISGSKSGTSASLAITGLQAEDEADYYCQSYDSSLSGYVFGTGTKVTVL

ELISA score 662 | ELISA score [4] | ELISA score 628 | ELISA score 913 | Kd [5] [nM] | koff [5] [s⁻¹] | kon [5] [M⁻¹ s⁻¹] | Binder | other results
– | – | – | – | – | – | – | mAb clone 20H5 (antibody, V domains shown, mouse hybridoma mAb from fusion 10 (immunogen fully human PIN574 Id protein)) VH: QVQLKESGPDLVAPSQSLSITCTVSGFSLTSYGVHWVRQPPGKGLEWLVVIWSDGSTTNNSPLKSRLSISKDNSKSQVFLKMNSLQTDDTAMYYCARHWGTTVVDAMDYWGQGTSVTVSS VL: DIQMTQTTSSLSASLGDRVIISCRASQDIRNYLNWYQQKPDGTVKLLIYYTSQLHSGVPSRFSGSGSGTDYSLTINNLSEQEDIATYFCQQYDTLPWTFGGGTKLEIKR | Kd [1]: 1.92 nM; koff [1]: 0.000146 s⁻¹; kon [1]: 75900 M⁻¹ s⁻¹; binding result [2]: no binding
4 | – | – | – | – | – | – | mAb clone 15E8 (antibody, V domains shown, mouse hybridoma mAb from fusion 16 (immunogen unconjugated fully human PIN116)) VH: QVQLQQPGAELVMPGASVKMSCKASGYTFTDYWMHWVKQRPGQGLEWIGTIDTSDSYTNYNQKFKGKATLTVDESSSTAYMQLSSLTSEDSAVYYCVRWKKYGNYFFDYWGQGTTLTVSS VL: DIVMTQSHKFMSTSVGDRVSITCKASQDVNTAVAWYQQKPGQSPKLLIYWASTRHTGVPDRFTGSGSGTDFSLTISSVQAEDLGLYYCQQCYSTPYAFGGGTKLEIKR | binding result [3]: no binding; ELISA score 116: 4; binding result 647: no binding
– | 4 | 4 | 4 | – | – | – | mAb clone 12C3 (antibody, V domains shown, mouse hybridoma mAb from fusions 20/21 (PIN628 V regions as immunogen)) VH: EVKLVESGGGLVQPGGSLSLSCAASGFTYTDYYMNWVRQPPGKALEWLALIRNKANGYTTEYSASLKGRFTISRDNSQSILYLQMNALRAEDSATYYCVRENINYYFDYWGQGTTLTVSS VL: DIVLTQSPASLAVSLGQRATISCRASESVEYFGASLMQWYQQKSGQPPKLLIRAATNVESGVPARFSGSGSGTDFSLNIHPVEEDDIAMYFCQQSRKVPWTFGGGTKLEIKR | –
– | 4 | 4 | 4 | 0.83 | 3.8e-05 | 45400 | mAb clone 10H7 (antibody, V domains shown, mouse hybridoma mAb from fusion 14 (immunogen PIN149 chimera-KLH)) VH: EVQLVESGGGLVKPGGSLKLSCTASGFTFSSYAMSWVRQSPEKRLEWVAEISSGGIHTYYSDTVTGRFSISRDNAKNSTLYLEMNSLRSEDTAIYYCARETTGTWGQGTLVTVSA VL: QIVLTQSPAIMSASPGEKVTMTCSVSSSITYMHWFRQKPGTSPKLWIYTTSNLASGVPARFSGSGSGTSYSLTISRMEAEDAATYYCQQRSRYPFTFGSGTKLEIKR | Kd [6]: 3 nM; koff [6]: 9.9e-05 s⁻¹; kon [6]: 33200 M⁻¹ s⁻¹; ELISA score [7]: 4
– | – | – | – | 1.78 | 0.000134 | 74900 | mAb clone 3C9 (antibody, V domains shown) VH: EVQLQQSGPELEKPGASVKISCKASGYSFTAYNMNWVKQNNGKSLEWIGNIDPYHGGTNYNQKFKGKATLTVDKSSSTAYMQLKSLTSEDYAVYYCARGGGDWSWFAYWGQGTLVTVSA VL: DIVMTQSHKFMSTSVGDRVSITCKASQDVNTAVAWYQQKPGQSPKVLIYWASNRHTGVPDRFTGSGSGTDYTLTISSMQAEDLALYYCHQHYSTPWTFGGGTKLEIER | –
4 | – | – | – | – | – | – | mAb clone 4H11 (antibody, V domains shown, mouse hybridoma mAb) VH: EVKLVESGGGLVKPGGSLKLSCAASGFAFSNYDMSWVRQTPEKRLEWVATIRSDDSYTYYPDSVKGRFTISRDNARNTLYLQMSSLRSEDTAFYYCARREGNYAMDYWGQGTSVTVSS VL: DIQMTQSPASLSVSVGETVTITCRASENIYSYLAWYQQKKGKSPQLLVYAATNLGDGVPTRFSGSGSGTQYSLKINSLQSEDFGSYYCQHFWGNPLTFGAGTKLELKR | ELISA score [3]: 4; binding result 116: no binding
